Measurements: the supplement of paper PMC7877785
± gives the uncertainty stated by the source.

Assay: self-splicing fitness, log relative to wild type (ln ratio); higher = more splicing; Tetrahymena group I intron in knt gene, E. coli kanamycin selection, DiMSum; sequences stand for … in CUCUCU…GGAGGGAAAAGUUAUCAGGCAUGCACCUGGUAGCUAGUCUUUAAACCAAUAGAUUGCAUCGGUUUAAAAGGCAAGACCGUCAAAUUGCGGGAAAGGGGUCAACAGCCGUUCAGUACCAAGUCUCAGGGGAAACUUUGAGAUGGCCUUGCAAAGGGUAUGGUAAUAAGCUGACGGACAUGGUCCUAACCACGCAGCCAAGUCCUAAGUCAACAGAUCUUCUGUUGAUAUGGAUGCAGUUCACAGACUAAAUGUCGGUCGGGGAAGAUGUAUUCUUCUCAUAAGAUAUAGUCGGACCUCUCCUUAAUGGGAGCUAGCGGAUGAAGUGAUGCAACACUGGAGCCGCUGGGAACUAAUUUGUAUGCGAAAGUAUAUUGAUUAGUUUUGGAGUACUCGUGGUCG
Outline: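 Pooled colonies went to amplicon sequencing on an Illumina HiSeq 2500 after six replicate transformations. The plates were LB agar with 100 μg/mL carbenicillin, 50 μM IPTG and 0.2% rhamnose, with or without 25 μg/mL kanamycin, incubated overnight at 37°C or 30°C. The E. coli BL21(DE3) library had all eight P1ex-region intron nucleotides randomised, the intron placed in the knt kanamycin-resistance gene on pET-22b(+). DiMSum fitness is the error-weighted combination of replicate fold changes, kanamycin against none, normalised to wild type.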

Row | Sequence | self-splicing fitness (ln) (37 °C) | self-splicing fitness (ln) (30 °C)
1 | GAUAAGCAAUAUUACGUCAC | -1.86 ± 0.27 | –
2 | GAUAAGCAAUAUUACGUUUG | -1.92 ± 0.17 | -2.07 ± 0.17
3 | GAUCAGCAAUAUUACGAACA | 0.0485 ± 0.15 | 0.0135 ± 0.15
4 | GAUCAGCAAUAUUACGACAA | -0.396 ± 0.089 | -0.267 ± 0.081
5 | GAUCAGCAAUAUUACGACUG | -0.166 ± 0.13 | -1.21 ± 0.082
6 | GAUCAGCAAUAUUACGAGUA | -0.817 ± 0.092 | -1.2 ± 0.12
7 | GAUCAGCAAUAUUACGAUAU | 0.658 ± 0.11 | -0.637 ± 0.08
8 | GAUCAGCAAUAUUACGAUUA | 0.0655 ± 0.1 | -0.622 ± 0.086
9 | GAUCAGCAAUAUUACGCAGC | -0.448 ± 0.13 | -1.64 ± 0.11
10 | GAUCAGCAAUAUUACGCUAA | -0.316 ± 0.15 | -1.11 ± 0.12
11 | GAUCAGCAAUAUUACGCUCU | -0.735 ± 0.15 | -1.3 ± 0.12
12 | GAUCAGCAAUAUUACGGCCG | -0.245 ± 0.14 | -0.635 ± 0.13
13 | GAUCAGCAAUAUUACGUAAU | -0.341 ± 0.13 | -0.0684 ± 0.098
14 | GAUCAGCAAUAUUACGUAGU | -0.885 ± 0.1 | -0.663 ± 0.1
15 | GAUCAGCAAUAUUACGUCAU | -0.393 ± 0.1 | -1.53 ± 0.094
16 | GAUCAGCAAUAUUACGUCGA | -0.202 ± 0.096 | -1.35 ± 0.084
17 | GAUCAGCAAUAUUACGUGCA | -0.489 ± 0.085 | -0.293 ± 0.072
18 | GAUCAGCAAUAUUACGUGGC | -0.582 ± 0.15 | -2.95 ± 0.21
19 | GAUCAGCAAUAUUACGUUCC | -2.85 ± 0.4 | –
20 | GAUCAGCAAUAUUACGUUCU | -1.46 ± 0.12 | -2.42 ± 0.1
21 | GAUGAGCAAUAUUACGAGGG | -2.15 ± 0.22 | –
22 | GAUGAGCAAUAUUACGAUCA | -1.31 ± 0.21 | -2.17 ± 0.24
23 | GAUGAGCAAUAUUACGAUCG | -2.32 ± 0.24 | -1.9 ± 0.35
24 | GAUGAGCAAUAUUACGAUUA | -1.4 ± 0.18 | -2.57 ± 0.21
25 | GAUGAGCAAUAUUACGCAAU | -2.46 ± 0.19 | -4.35 ± 0.34

Row | Sequence | self-splicing fitness (ln) (37 °C) | self-splicing fitness (ln) (30 °C)
26 | GAUGAGCAAUAUUACGCACU | -1.04 ± 0.2 | -2.71 ± 0.22
27 | GAUGAGCAAUAUUACGCAGG | -2.24 ± 0.43 | –
28 | GAUGAGCAAUAUUACGCCCG | -2.08 ± 0.43 | -3 ± 0.36
29 | GAUGAGCAAUAUUACGCCUA | -0.51 ± 0.26 | -1.7 ± 0.29
30 | GAUGAGCAAUAUUACGCCUG | -2.53 ± 0.41 | -1.57 ± 0.26
31 | GAUGAGCAAUAUUACGCGUG | -1.14 ± 0.16 | -0.71 ± 0.14
32 | GAUGAGCAAUAUUACGCUGU | -2.35 ± 0.26 | -3.68 ± 0.26
33 | GAUGAGCAAUAUUACGGAUG | -2.89 ± 0.26 | -2.78 ± 0.19
34 | GAUGAGCAAUAUUACGGCAA | -2.35 ± 0.37 | -0.812 ± 0.26
35 | GAUGAGCAAUAUUACGGCAC | -0.366 ± 0.16 | -0.478 ± 0.098
36 | GAUGAGCAAUAUUACGGGCA | -1.88 ± 0.28 | -1.87 ± 0.2
37 | GAUGAGCAAUAUUACGGGUG | -3.32 ± 0.28 | -2.68 ± 0.2
38 | GAUGAGCAAUAUUACGGUCC | -2.27 ± 0.36 | -3.29 ± 0.2
39 | GAUGAGCAAUAUUACGUAAG | -2.11 ± 0.2 | -3.37 ± 0.24
40 | GAUGAGCAAUAUUACGUAGA | -1.88 ± 0.2 | -3.51 ± 0.24
41 | GAUGAGCAAUAUUACGUCGC | -2.7 ± 0.26 | -4.14 ± 0.29
42 | GAUGAGCAAUAUUACGUGGC | -2.59 ± 0.26 | -3.24 ± 0.22
43 | GAUGAGCAAUAUUACGUUAG | -1.81 ± 0.23 | -3.42 ± 0.24
44 | GAUGAGCAAUAUUACGUUAU | -1.77 ± 0.16 | -3.98 ± 0.23
45 | GAUGAGCAAUAUUACGUUGG | -2.2 ± 0.32 | -3.65 ± 0.3
46 | GAUGAGCAAUAUUACGUUUA | -2.75 ± 0.23 | -3.13 ± 0.29
47 | GAUGAGCAAUAUUACGUUUG | -2.77 ± 0.26 | -3.24 ± 0.21
48 | GAUUAGCAAUAUUACGACGA | -0.273 ± 0.2 | -1.23 ± 0.3
49 | GAUUAGCAAUAUUACGAGAU | -3.26 ± 0.19 | -3.12 ± 0.14
50 | GAUUAGCAAUAUUACGCAUA | -0.967 ± 0.14 | -2.08 ± 0.17

Row | Sequence | self-splicing fitness (ln) (37 °C) | self-splicing fitness (ln) (30 °C)
51 | GAUUAGCAAUAUUACGCCGA | – | -1.03 ± 0.42
52 | GAUUAGCAAUAUUACGGAAA | -2.19 ± 0.22 | -2.25 ± 0.29
53 | GAUUAGCAAUAUUACGGCCA | 0.41 ± 0.21 | -1.41 ± 0.19
54 | GAUUAGCAAUAUUACGGGUA | -1.04 ± 0.12 | -1.98 ± 0.13
55 | GAUUAGCAAUAUUACGUAGA | -0.933 ± 0.14 | -1.92 ± 0.15
56 | GCAAAGCAAUAUUACGAAGC | -2.28 ± 0.34 | -1.83 ± 0.25
57 | GCAAAGCAAUAUUACGACAG | -2.68 ± 0.23 | -3.2 ± 0.18
58 | GCAAAGCAAUAUUACGAGAC | -2.63 ± 0.43 | –
59 | GCAAAGCAAUAUUACGAUCG | -0.0765 ± 0.091 | -1.52 ± 0.067
60 | GCAAAGCAAUAUUACGAUUA | -1.13 ± 0.13 | -0.0977 ± 0.11
61 | GCAAAGCAAUAUUACGAUUG | -1.28 ± 0.15 | -3.55 ± 0.21
62 | GCAAAGCAAUAUUACGCACA | -0.182 ± 0.14 | -0.917 ± 0.12
63 | GCAAAGCAAUAUUACGCAUC | -1.4 ± 0.17 | -1.98 ± 0.16
64 | GCAAAGCAAUAUUACGCCCA | -0.194 ± 0.15 | -1.56 ± 0.16
65 | GCAAAGCAAUAUUACGCCGU | -2.46 ± 0.23 | -2.85 ± 0.21
66 | GCAAAGCAAUAUUACGCCUA | -1.11 ± 0.21 | -3.76 ± 0.42
67 | GCAAAGCAAUAUUACGCGUC | -1.94 ± 0.32 | -2.92 ± 0.28
68 | GCAAAGCAAUAUUACGCUAG | -2.51 ± 0.084 | -2.78 ± 0.088
69 | GCAAAGCAAUAUUACGCUCG | -0.86 ± 0.24 | -0.748 ± 0.17
70 | GCAAAGCAAUAUUACGCUCU | -0.565 ± 0.097 | -1.27 ± 0.075
71 | GCAAAGCAAUAUUACGCUUA | -1.46 ± 0.12 | -2.59 ± 0.15
72 | GCAAAGCAAUAUUACGGCUU | -0.763 ± 0.15 | -1.48 ± 0.11
73 | GCAAAGCAAUAUUACGGUAA | -0.921 ± 0.13 | -0.837 ± 0.12
74 | GCAAAGCAAUAUUACGGUGG | -2.43 ± 0.19 | -2.27 ± 0.12
75 | GCAAAGCAAUAUUACGUCUA | -0.637 ± 0.11 | -0.983 ± 0.13

Row | Sequence | self-splicing fitness (ln) (37 °C) | self-splicing fitness (ln) (30 °C)
76 | GCAAAGCAAUAUUACGUGAC | -1.1 ± 0.13 | -2.78 ± 0.12
77 | GCAAAGCAAUAUUACGUGGG | -3.07 ± 0.16 | -3.38 ± 0.15
78 | GCAAAGCAAUAUUACGUGUU | -1.03 ± 0.11 | -1.88 ± 0.086
79 | GCAAAGCAAUAUUACGUUGA | -1.03 ± 0.094 | -1.67 ± 0.088
80 | GCACAGCAAUAUUACGACGA | 0.243 ± 0.15 | -0.897 ± 0.13
81 | GCACAGCAAUAUUACGACGU | -0.0751 ± 0.088 | -0.591 ± 0.073
82 | GCACAGCAAUAUUACGAGGG | -1.14 ± 0.14 | -1.9 ± 0.091
83 | GCACAGCAAUAUUACGAGGU | 0.0148 ± 0.11 | -1.85 ± 0.095
84 | GCACAGCAAUAUUACGAUGU | -0.389 ± 0.088 | -2.05 ± 0.079
85 | GCACAGCAAUAUUACGAUUU | -0.0519 ± 0.058 | -0.869 ± 0.042
86 | GCACAGCAAUAUUACGCAAG | -2.51 ± 0.19 | -3.59 ± 0.24
87 | GCACAGCAAUAUUACGCCAA | -2.56 ± 0.2 | -3.77 ± 0.25
88 | GCACAGCAAUAUUACGCCUA | -0.373 ± 0.11 | -0.82 ± 0.13
89 | GCACAGCAAUAUUACGCGAC | -1.18 ± 0.16 | -1.75 ± 0.13
90 | GCACAGCAAUAUUACGCUAC | -2.29 ± 0.25 | -3.81 ± 0.37
91 | GCACAGCAAUAUUACGGACG | 0.0137 ± 0.14 | -1.3 ± 0.14
92 | GCACAGCAAUAUUACGGAGC | -2.1 ± 0.21 | -2.16 ± 0.15
93 | GCACAGCAAUAUUACGGCUC | 0.523 ± 0.076 | -0.268 ± 0.071
94 | GCACAGCAAUAUUACGUAUC | -0.833 ± 0.066 | -0.923 ± 0.061
95 | GCACAGCAAUAUUACGUCCC | -0.44 ± 0.11 | -0.0609 ± 0.11
96 | GCACAGCAAUAUUACGUGGG | -1.47 ± 0.067 | -1.53 ± 0.059
97 | GCACAGCAAUAUUACGUUUA | -0.603 ± 0.066 | -1.19 ± 0.066
